{"source": "paper PMC10593786", "key": {"[1]": {"biological_target": "FLMyo6 (T888D.Q892E.V903D) (human) (UniProt Q9UM54)"}, "[2]": {"biological_target": "Jo-Myo6-In heavy chain (Streptococcus pneumoniae | human)", "assay": "co-purification, SDS-PAGE; CaM co-expressed with Jo-Myo6-In in Sf9 cells, purified by the Flag tag of the heavy chain, read by SDS-PAGE"}, "[3]": {"biological_target": "full-length wild-type Myo6, small insert isoform (FLMyo6 SI (WT)) (human) (UniProt Q9UM54)"}}, "data": [{"substance": "FLMyo6 (T888D.Q892E.V903D) (from UniProt Q9UM54-5 1-1253; P0DP23 1-149) (complex)", "values": [{"measurement": "maximal actin-activated ATPase rate of FLMyo6 (T888D.Q892E.V903D) upon GIPC1 addition (loss of gating)", "setting": "[1]", "result": 2, "unit": "fold"}]}, {"substance": "calmodulin (CaM) (from UniProt P0DP23 1-149) (natural protein)", "values": [{"measurement": "stoichiometry N (CaM per heavy chain)", "setting": "[2]", "result": 2}]}, {"substance": "full-length wild-type Myo6, small insert isoform (FLMyo6 SI (WT)) (from UniProt Q9UM54-2 1-1262; P0DP23 1-149) (complex)", "values": [{"measurement": "decrease in maximal actin-activated ATPase activity per Head of FLMyo6 (WT, no-insert isoform) upon addition of GIPC1, compared to monomeric MD^Ins2 (gating in a dimer)", "setting": "[3]", "result": 50, "unit": "%"}]}]}
